Measurements taken from patent US20250361282A1 (Bayer, published 2025).

Key:
[1] = biological target: T1, rat NPR-A (rat, UniProt P18910 29-1057); assay: cell-based or functional assay
T1 sequence (looked up): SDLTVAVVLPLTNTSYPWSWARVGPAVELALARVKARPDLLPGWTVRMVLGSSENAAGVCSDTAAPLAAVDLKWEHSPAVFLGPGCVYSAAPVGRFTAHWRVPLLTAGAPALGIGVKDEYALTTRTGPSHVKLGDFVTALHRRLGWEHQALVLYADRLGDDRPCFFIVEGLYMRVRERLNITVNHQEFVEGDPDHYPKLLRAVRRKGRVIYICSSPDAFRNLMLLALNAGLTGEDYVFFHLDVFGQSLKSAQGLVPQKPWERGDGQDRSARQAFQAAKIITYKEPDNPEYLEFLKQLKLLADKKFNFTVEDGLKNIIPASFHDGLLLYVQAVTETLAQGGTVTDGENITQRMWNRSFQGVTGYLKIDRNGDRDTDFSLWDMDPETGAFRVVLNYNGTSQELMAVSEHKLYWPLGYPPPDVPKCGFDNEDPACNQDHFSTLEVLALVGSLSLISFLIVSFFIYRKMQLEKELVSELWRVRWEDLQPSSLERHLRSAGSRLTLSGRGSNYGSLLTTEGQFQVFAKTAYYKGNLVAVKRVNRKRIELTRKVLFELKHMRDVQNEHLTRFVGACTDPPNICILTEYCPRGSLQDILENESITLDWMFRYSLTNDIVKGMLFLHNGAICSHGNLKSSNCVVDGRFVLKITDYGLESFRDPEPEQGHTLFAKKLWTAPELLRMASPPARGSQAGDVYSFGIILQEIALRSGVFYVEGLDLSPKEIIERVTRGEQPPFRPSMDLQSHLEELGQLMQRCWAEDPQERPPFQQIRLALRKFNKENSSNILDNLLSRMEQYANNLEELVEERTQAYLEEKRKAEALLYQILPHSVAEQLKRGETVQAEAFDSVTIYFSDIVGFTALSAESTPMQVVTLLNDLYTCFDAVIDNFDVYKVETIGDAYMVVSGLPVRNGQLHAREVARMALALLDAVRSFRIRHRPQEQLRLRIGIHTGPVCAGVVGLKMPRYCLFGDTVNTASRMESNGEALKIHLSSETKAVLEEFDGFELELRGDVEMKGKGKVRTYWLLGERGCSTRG

[2] = biological target: T2, human NPRA (human, UniProt P16066 33-1061); assay: cell-based or functional assay
T2 sequence (looked up): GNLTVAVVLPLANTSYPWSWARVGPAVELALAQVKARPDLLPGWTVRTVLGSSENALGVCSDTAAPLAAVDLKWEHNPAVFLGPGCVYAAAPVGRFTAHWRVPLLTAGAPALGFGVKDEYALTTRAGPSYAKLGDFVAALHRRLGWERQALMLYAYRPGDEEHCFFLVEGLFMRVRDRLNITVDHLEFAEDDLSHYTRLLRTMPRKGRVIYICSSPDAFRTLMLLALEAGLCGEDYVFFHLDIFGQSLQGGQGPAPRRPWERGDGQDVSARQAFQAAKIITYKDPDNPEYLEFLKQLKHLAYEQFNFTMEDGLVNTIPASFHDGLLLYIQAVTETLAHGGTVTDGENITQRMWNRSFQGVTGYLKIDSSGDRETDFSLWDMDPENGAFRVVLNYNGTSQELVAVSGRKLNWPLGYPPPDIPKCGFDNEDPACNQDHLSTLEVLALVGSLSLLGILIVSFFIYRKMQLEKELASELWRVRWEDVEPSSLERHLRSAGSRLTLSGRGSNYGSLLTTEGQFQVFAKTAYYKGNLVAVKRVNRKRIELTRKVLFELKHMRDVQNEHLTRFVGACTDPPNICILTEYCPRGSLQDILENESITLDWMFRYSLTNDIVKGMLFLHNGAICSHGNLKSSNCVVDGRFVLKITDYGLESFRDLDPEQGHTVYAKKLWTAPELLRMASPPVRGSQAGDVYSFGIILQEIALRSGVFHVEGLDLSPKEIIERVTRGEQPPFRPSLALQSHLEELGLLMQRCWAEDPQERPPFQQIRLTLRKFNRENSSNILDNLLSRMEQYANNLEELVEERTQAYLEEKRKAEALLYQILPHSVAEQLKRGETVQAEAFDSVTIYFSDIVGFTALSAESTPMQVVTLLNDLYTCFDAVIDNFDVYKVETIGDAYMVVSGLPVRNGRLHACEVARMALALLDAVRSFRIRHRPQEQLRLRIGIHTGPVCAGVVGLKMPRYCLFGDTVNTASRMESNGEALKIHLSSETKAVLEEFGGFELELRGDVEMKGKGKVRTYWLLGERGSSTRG

B1: TPP-11156 (antibody, human IgG1, lambda)
heavy: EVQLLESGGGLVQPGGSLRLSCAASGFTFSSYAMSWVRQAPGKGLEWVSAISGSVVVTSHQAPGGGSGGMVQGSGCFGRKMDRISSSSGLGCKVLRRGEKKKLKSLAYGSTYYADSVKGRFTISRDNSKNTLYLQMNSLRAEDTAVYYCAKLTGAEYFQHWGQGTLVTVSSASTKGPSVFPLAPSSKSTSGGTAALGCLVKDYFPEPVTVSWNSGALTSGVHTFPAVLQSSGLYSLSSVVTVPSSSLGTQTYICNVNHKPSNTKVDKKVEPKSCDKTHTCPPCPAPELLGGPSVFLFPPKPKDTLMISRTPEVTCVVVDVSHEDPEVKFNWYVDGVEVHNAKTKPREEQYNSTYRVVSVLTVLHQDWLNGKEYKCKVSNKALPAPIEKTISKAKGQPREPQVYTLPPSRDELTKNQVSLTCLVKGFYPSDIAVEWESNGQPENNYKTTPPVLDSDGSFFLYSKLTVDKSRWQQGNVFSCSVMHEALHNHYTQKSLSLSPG
light: QSVLTQPPSVSGAPGQRVTISCTGSSSNIGAGYDVHWYQQLPGTAPKLLIYGNSNRPSGVPDRFSGSKSGTSASLAITGLQAEDEADYYCQSYDSSLSGVVFGGGTKLTVLGQPKAAPSVTLFPPSSEELQANKATLVCLISDFYPGAVTVAWKADSSPVKAGVETTTPSKQSNNKYAASSYLSLTPEQWKSHRSYSCQVTHEGSTVEKTVAPTECS
B1 was tested, and the “EC50, fluorescence signal of rat NPR-A / CNGA2 (cGMP biosensor) / GCaMP6 CHO reporter cells” value [1] was 1200 nM and the “EC50 on rNPRA reporter cells” value [1] was greater than 1000 nM.

B2: TPP-9902 (antibody)
heavy: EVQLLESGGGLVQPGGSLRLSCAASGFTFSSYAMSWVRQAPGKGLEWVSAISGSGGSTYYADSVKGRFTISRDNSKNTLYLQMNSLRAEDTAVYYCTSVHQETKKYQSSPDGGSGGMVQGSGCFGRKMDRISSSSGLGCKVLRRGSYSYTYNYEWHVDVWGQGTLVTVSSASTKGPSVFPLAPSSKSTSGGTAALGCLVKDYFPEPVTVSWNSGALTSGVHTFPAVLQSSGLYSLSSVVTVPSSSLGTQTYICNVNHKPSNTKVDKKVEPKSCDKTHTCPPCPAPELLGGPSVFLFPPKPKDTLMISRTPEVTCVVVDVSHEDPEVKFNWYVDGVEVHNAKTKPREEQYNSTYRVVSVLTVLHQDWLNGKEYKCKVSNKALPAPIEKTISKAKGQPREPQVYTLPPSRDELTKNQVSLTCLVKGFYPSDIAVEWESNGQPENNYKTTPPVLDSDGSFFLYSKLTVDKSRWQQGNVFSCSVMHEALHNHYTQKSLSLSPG
light: QSVLTQPPSVSGAPGQRVTISCTGSSSNIGAGYDVHWYQQLPGTAPKLLIYGNSNRPSGVPDRFSGSKSGTSASLAITGLQAEDEADYYCQSYDSSLSGVVFGGGTKLTVLGQPKAAPSVTLFPPSSEELQANKATLVCLISDFYPGAVTVAWKADSSPVKAGVETTTPSKQSNNKYAASSYLSLTPEQWKSHRSYSCQVTHEGSTVEKTVAPTECS
With B2 the “EC50, fluorescence signal of rat NPR-A / CNGA2 (cGMP biosensor) / GCaMP6 CHO reporter cells” value [1] was 2300 nM and the “EC50 on rNPRA reporter cells” value [1] was greater than 1000 nM.

B3: TPP-10992 (antibody, human IgG4 S228P, lambda)
heavy: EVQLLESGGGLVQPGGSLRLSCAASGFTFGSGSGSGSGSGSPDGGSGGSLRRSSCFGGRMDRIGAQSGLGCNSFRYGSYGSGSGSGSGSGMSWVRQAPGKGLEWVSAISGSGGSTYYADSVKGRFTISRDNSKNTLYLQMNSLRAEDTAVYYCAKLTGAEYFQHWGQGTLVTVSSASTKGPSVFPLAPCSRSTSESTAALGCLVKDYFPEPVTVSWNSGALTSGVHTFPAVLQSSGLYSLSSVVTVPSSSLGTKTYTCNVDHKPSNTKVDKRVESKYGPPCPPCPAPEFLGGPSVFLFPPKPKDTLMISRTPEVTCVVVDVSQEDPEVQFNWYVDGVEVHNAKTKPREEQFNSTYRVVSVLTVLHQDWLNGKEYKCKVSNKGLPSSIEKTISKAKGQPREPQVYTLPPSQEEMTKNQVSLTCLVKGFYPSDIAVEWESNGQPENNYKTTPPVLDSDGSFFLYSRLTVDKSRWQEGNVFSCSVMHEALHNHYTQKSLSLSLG
light: QSVLTQPPSVSGAPGQRVTISCTGSSSNIGAGYDVHWYQQLPGTAPKLLIYGNSNRPSGVPDRFSGSKSGTSASLAITGLQAEDEADYYCQSYDSSLSGVVFGGGTKLTVLGQPKAAPSVTLFPPSSEELQANKATLVCLISDFYPGAVTVAWKADSSPVKAGVETTTPSKQSNNKYAASSYLSLTPEQWKSHRSYSCQVTHEGSTVEKTVAPTECS
With B3 the “EC50, fluorescence signal of rat NPR-A / CNGA2 (cGMP biosensor) / GCaMP6 CHO reporter cells” value [1] was 180 nM.

B4: TPP-5661 (antibody)
heavy: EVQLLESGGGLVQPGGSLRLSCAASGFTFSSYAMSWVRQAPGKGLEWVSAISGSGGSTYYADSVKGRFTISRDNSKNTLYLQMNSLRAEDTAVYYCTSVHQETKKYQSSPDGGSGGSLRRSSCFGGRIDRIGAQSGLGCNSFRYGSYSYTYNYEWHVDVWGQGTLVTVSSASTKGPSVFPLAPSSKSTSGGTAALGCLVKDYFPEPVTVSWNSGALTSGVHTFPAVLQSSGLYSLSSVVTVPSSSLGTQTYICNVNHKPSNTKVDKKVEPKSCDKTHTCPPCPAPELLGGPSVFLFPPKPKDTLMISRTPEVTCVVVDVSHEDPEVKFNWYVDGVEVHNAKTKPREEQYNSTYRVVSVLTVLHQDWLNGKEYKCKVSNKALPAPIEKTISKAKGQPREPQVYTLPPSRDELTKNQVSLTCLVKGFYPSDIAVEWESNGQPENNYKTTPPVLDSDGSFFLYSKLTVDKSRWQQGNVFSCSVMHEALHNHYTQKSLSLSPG
light: QSVLTQPPSVSGAPGQRVTISCTGSSSNIGAGYDVHWYQQLPGTAPKLLIYGNSNRPSGVPDRFSGSKSGTSASLAITGLQAEDEADYYCQSYDSSLSGVVFGGGTKLTVLGQPKAAPSVTLFPPSSEELQANKATLVCLISDFYPGAVTVAWKADSSPVKAGVETTTPSKQSNNKYAASSYLSLTPEQWKSHRSYSCQVTHEGSTVEKTVAPTECS
B4 was tested, and the activity rcs [2] was 36%, the “average rel logEC50” value [2] was 0 delta logEC50 vs TPP-5661 and the rel. activity rcs [2] was 0 delta logEC50 vs TPP-5661. The “rel. logEC50* pcs” value [2] was 0 delta logEC50 vs TPP-5661, the “rel. logEC50 ics” value [2] was 0 delta logEC50 vs TPP-5661 and the “rel. logEC50 pcs 1” value [2] was 0 delta logEC50 vs TPP-5661. The “rel. logEC50 pcs 2” value [2] was 0 delta logEC50 vs TPP-5661, the “rel. logEC50 pcs 3” value [2] was 0 delta logEC50 vs TPP-5661 and the “rel. logEC50 pcs 4” value [2] was 0 delta logEC50 vs TPP-5661. The “rel. logEC50 pcs 5” value [2] was 0 delta logEC50 vs TPP-5661, the “rel. logEC50 pcs 6” value [2] was 0 delta logEC50 vs TPP-5661 and the “rel. logEC50 pcs 7” value [2] was 0 delta logEC50 vs TPP-5661. The “rel. logEC50 pcs 8” value [2] was 0 delta logEC50 vs TPP-5661 and the “rel. logEC50 pcs 9” value [2] was 0 delta logEC50 vs TPP-5661.

B5: TPP-10290 (antibody)
heavy: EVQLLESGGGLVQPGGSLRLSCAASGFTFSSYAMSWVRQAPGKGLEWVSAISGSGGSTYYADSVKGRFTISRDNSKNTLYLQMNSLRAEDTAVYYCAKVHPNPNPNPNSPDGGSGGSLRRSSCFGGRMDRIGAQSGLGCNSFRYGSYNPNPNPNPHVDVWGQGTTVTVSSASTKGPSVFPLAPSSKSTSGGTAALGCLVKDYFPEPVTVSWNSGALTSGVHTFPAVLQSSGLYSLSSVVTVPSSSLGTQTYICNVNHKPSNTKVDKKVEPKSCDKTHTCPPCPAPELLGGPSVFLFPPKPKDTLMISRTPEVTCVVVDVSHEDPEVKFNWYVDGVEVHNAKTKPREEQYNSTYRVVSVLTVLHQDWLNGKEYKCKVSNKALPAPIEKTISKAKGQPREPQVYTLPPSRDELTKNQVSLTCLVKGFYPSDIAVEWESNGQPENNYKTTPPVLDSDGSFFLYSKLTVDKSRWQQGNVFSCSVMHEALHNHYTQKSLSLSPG
light: QSVLTQPPSVSGAPGQRVTISCTGSSSNIGAGYDVHWYQQLPGTAPKLLIYGNSNRPSGVPDRFSGSKSGTSASLAITGLQAEDEADYYCQSYDSSLSGVVFGGGTKLTVLGQPKAAPSVTLFPPSSEELQANKATLVCLISDFYPGAVTVAWKADSSPVKAGVETTTPSKQSNNKYAASSYLSLTPEQWKSHRSYSCQVTHEGSTVEKTVAPTECS
B5 was tested, and the activity rcs [2] was 84%, the “average rel logEC50” value [2] was -0.5 delta logEC50 vs TPP-5661 and the “rel. logEC50 pcs 2” value [2] was -0.8 delta logEC50 vs TPP-5661. The “rel. logEC50 pcs 3” value [2] was -0.1 delta logEC50 vs TPP-5661.

B6: TPP-13230 (antibody)
heavy: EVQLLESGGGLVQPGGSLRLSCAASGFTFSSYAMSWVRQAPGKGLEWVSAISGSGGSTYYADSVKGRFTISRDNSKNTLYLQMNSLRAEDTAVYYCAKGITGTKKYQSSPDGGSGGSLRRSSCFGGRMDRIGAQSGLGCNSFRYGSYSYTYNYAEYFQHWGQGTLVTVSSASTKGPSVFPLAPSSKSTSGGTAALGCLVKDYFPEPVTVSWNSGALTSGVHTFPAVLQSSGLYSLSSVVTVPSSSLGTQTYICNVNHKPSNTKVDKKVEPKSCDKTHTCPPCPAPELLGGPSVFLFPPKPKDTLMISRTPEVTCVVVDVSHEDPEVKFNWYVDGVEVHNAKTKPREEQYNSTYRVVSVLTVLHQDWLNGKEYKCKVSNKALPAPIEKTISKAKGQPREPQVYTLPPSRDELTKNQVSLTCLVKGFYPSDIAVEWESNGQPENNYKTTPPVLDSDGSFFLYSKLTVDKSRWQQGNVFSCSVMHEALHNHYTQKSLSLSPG
light: QSVLTQPPSVSGAPGQRVTISCTGSSSNIGAGYDVHWYQQLPGTAPKLLIYGNSNRPSGVPDRFSGSKSGTSASLAITGLQAEDEADYYCQSYDSSLSGVVFGGGTKLTVLGQPKAAPSVTLFPPSSEELQANKATLVCLISDFYPGAVTVAWKADSSPVKAGVETTTPSKQSNNKYAASSYLSLTPEQWKSHRSYSCQVTHEGSTVEKTVAPTECS
For B6, the “average rel logEC50” value [2] was -0.3 delta logEC50 vs TPP-5661 and the “rel. logEC50 pcs 9” value [2] was -0.3 delta logEC50 vs TPP-5661.

B7: TPP-10361 (antibody, human IgG1, lambda)
heavy: not shown
light: QSVLTQPPSVSGAPGQRVTISCTGSSSNIGAGYDVHWYQQLPGTAPKLLIYGSGSGSGSGSGSPDGGSGGSLRRSSCFGGRMDRIGAQSGLGCNSFRYGSYGSGGSGSGSGNRPSGVPDRFSGSKSGTSASLAITGLQAEDEADYYCQSYDSSLSGVVFGGGTKLTVLGQPKAAPSVTLFPPSSEELQANKATLVCLISDFYPGAVTVAWKADSSPVKAGVETTTPSKQSNNKYAASSYLSLTPEQWKSHRSYSCQVTHEGSTVEKTVAPTECS
With B7 the activity rcs [2] was 20%, the “average rel logEC50” value [2] was -0.1 delta logEC50 vs TPP-5661 and the rel. activity rcs [2] was -0.1 delta logEC50 vs TPP-5661. For the same binder, the “rel. logEC50 pcs 5” value [2] was -0.1 delta logEC50 vs TPP-5661.

B8: TPP-10355 (antibody, human IgG1, lambda)
heavy: not shown
light: QSVLTQPPSVSGAPGQRVTISCTGSSSNIGAGYDVHWYQQLPGTAPKLLIYGNSNRPSGVPDRFSGSKSGTSASLAITGLQAEDEADYYCAAWNPNPNPNPNPNGGSGGSLRRSSCFGGRMDRIGAQSGLGCNSFRYGSNPNPNPNPNPNVFGSGTKVTVLGQPKAAPSVTLFPPSSEELQANKATLVCLISDFYPGAVTVAWKADSSPVKAGVETTTPSKQSNNKYAASSYLSLTPEQWKSHRSYSCQVTHEGSTVEKTVAPTECS
With B8 the activity rcs [2] was 94%, the “average rel logEC50” value [2] was -0.2 delta logEC50 vs TPP-5661 and the rel. activity rcs [2] was 0.1 delta logEC50 vs TPP-5661. For the same binder, the “rel. logEC50 pcs 2” value [2] was -0.6 delta logEC50 vs TPP-5661, the “rel. logEC50 pcs 3” value [2] was 0.2 delta logEC50 vs TPP-5661 and the “rel. logEC50 pcs 4” value [2] was -0.3 delta logEC50 vs TPP-5661.

B9: TPP-11157 (antibody, V domains shown)
VH: GFTFSSYAMSWVRQAPGKGLEWVSAISGSVVVTSHQAPGGGSGGGEKKKLKSLAYGSTYYADSVKGRFTISRDNSKNTLYLQMNSLRAEDTAVYYCAKLTGAEYFQHWGQGTLVTVSS
VL: QSVLTQPPSVSGAPGQRVTISCTGSSSNIGAGYDVHWYQQLPGTAPKLLIYGNSNRPSGVPDRFSGSKSGTSASLAITGLQAEDEADYYCQSYDSSLSGVVFGGGTKLTVLG
In the case of B9, the “EC50, fluorescence signal of rat NPR-A / CNGA2 (cGMP biosensor) / GCaMP6 CHO reporter cells” value [1] is reported as 11 nM and the “EC50 on rNPRA reporter cells” value [1] is reported as less than 20 nM.

B10: TPP-11154 (antibody, V domains shown)
VH: EVQLLESGGGLVQPGGSLRLSCAASGFTFSSYAMSWVRQAPGKGLEWVSAISGSGGSTYYADSVKGRFTISRDNSKNTLYLQMNSLRAEDTAVYYCTSVHQETKKYQSSPDGGSGGGSYSYTYNYEWHVDVWGQGTLVTVSS
VL: QSVLTQPPSVSGAPGQRVTISCTGSSSNIGAGYDVHWYQQLPGTAPKLLIYGNSNRPSGVPDRFSGSKSGTSASLAITGLQAEDEADYYCQSYDSSLSGVVFGGGTKLTVLG
In the case of B10, the “EC50, fluorescence signal of rat NPR-A / CNGA2 (cGMP biosensor) / GCaMP6 CHO reporter cells” value [1] is reported as 7 nM and the “EC50 on rNPRA reporter cells” value [1] is reported as less than 20 nM.

B11: TPP-11155 (antibody, V domains shown)
VH: EVQLLESGGGLVQPGGSLRLSCAASGFTFSSYAMSWVRQAPGKGLEWVSAISGSGGSTYYADSVKGRFTISRDNSKNTLYLQMNSLRAEDTAVYYCTSVHQETKKYQSSPDGGSYSYTYNYEWHVDVWGQGTLVTVSS
VL: QSVLTQPPSVSGAPGQRVTISCTGSSSNIGAGYDVHWYQQLPGTAPKLLIYGNSNRPSGVPDRFSGSKSGTSASLAITGLQAEDEADYYCQSYDSSLSGVVFGGGTKLTVLG
In the case of B11, the “EC50, fluorescence signal of rat NPR-A / CNGA2 (cGMP biosensor) / GCaMP6 CHO reporter cells” value [1] is reported as 12 nM and the “EC50 on rNPRA reporter cells” value [1] is reported as less than 20 nM.
